Assay: soluble on expression in E. coli; label from the status in PepcDB or PDB records

Sequence | soluble on expression in E. coli
EKGFKVVVLESAKVGFGATGRNGGQIVNSYSRDVDVIESRYDQNQAKALCDMIFEGGDIIRGLIDKYDINCDYKQGGLFTALNSKQLKGLEEHKKNWERYGNDQLTLLDAGEVEQAVGTKVYTGGLLDMRGGHIHPLKLALGEAAAFISLGGQIFEQSAVVSIDKGMNPVVKTAQGSVKSK | not soluble
MAHHHHHHMPGVLRGKGPTRVFLPQPCNHVGNLKIVWKVKLQIYAVQTNFSRVYGAPSDAQPHVICGTKRISDVHQDIACCRILLNGVIAPPVRLQNQPLVFLTKETGDGVGITHCVECRHVSQHILRLKKNIAVNDDSPLLGAAVTNEIHTKPASSHSSADTQMIGH | not soluble
MELKNSISDYTETEFKKIIEDIINCEGDEKKQDDNLEHFISVTEHPSGSDLIYYPEGNNDGSPEAVIKEIKEWRAANGKSGFKQG | soluble
MSLTELYIHNGRDVSGAPVAVLITDGVIAEVGTELTVPVGCPTLDAQGCYITAGWIDDHTHCNAHAALYYDDADAIGYRTGVTTVIDAGSTGADNVADLYQQAHRAATNVYALLNIARTGIVAQDELADLNQLSFSALRTAIKRYPDFIVGLKVRVSKSVVGDNGVEPLRVAKQYQADLTVQLPLMVHIGSNPPELAAIIALMRPGDVLTHCFNGKPNGIVNSTGEVAQYVRKAYQKGLIFDVGHGTDSFSFRTAALARTAHLFPQTLSSDIYYRNRLNGPVYSLAVCVEKLLLLGYRLEEIIPMITTNPARIFKLTHKGQLCRGYDADLTIFQTVTAPQIVVDSTGEERIAPTQVIPTYSVIAGRVYTCGVDKEGHHHHHH | soluble
MRKPKITVIGGGTGSPVILKSLREKDVEIAAIVTVADDGGSSGELRKNMQQLTPPGDLRNVLVAMSDMPKFYEKVFQYRFSEDAGAFAGHPLGNLIIAGLSEMQGSTYNAMQLLSKFFHTTGKIYPSSDHPLTLHAVFQDGTEVAGESHIVDHRGIIDNVYVTNALNDDTPLASRRVVQTILESDMIVLGPGSLFTSILPNIVIKEIGRALLETKAEIAYVCNIMTQRGETEHFTDSDHVEVLHRHLGRPFIDTVLVNIEKVPQEYMNSNRFDEYLVQVEHDFVGLCKQVSRVISSNFLRLENGGAFHDGDLIVDELMRIIQVKKLEHHHHHH | soluble
NLEGKGCSVLDQAGLAQKFGPVVSHIRIAARQEDLFAVRIAAGEAHLLLGCDLLVAAGPDAIAKLDSKISHAVINSQQTPTAEFTRNPDAVFPAEAMKQTIIDAVGADKTHFVEATSLATRLMGDSIASNLFMLGYAFQLGLIPLTSAAIEKAIELNGVAVNLNQQAFLWGRRTAHDPAAVEAFVNPQP | not soluble
PDVDGMITLKVDNLTYRTSPDSLRRVFEKYGRVGDVYIPREPHTKAPRGFAFVRFHDRRDAQDAEAAMDGAELDGRELRVQVARYGRRDL | soluble
MSLDRASHLKMSSEERRAHRDGTVWQLYEWQQRQQFRHGSPTAPICLGSPEFTDQGRSRSMLEVPRSISVPPSPSDIPPPGPPRVFPPRRPHTPAERVTVKPPDQRRSVDISLGDSPRRARGHAVKNSSHVDRRSMPSMGYMTHTVSAPSLHGKSADDTYLQLKKDLEYLDLKMTGRDLLKDRSLKPVKIAESDTDVKLSIFCEQDRVLQDLEDKIRALKENKDQLESVLEVLHRQMEQYRDQPQHLEKIAYQQKLLQEDLVHIRAELSRESTEMENAWNEYLKLENDVEQLKQTLQEQHRRAFFFQEKSQIQKDLWRIEDVTAGLSANKENFRILVESVKNPERKTVPLFPHEGHHHHHH | soluble
STVKRKPVFVKVEQLKPGTTGHTLTVKVIEANIVVPVTRKTRPASSLSRPSQPSRIVECLIGDETGCILFTARNDQVDLMKPGATVILRNSRIDMFKGTMRLGVDKWGRIEATGAASFTVKEDNNLSLVEYE | soluble
MSDESNPPKVILLVEDSKADSRLVQEVLKTSTIDHELIILRDGLAAMAFLQQQGEYENSPRPNLILLDLNLPKKDGREVLAEIKQNPDLKRIPVVVLTTSHNEDDVIASYELHVNCYLTKSRNLKDLFKMVQGIESFWLETVTLPAAPG | soluble
MGSDKIHHHHHHMLDCHEDTLVILAKNIAVEMHYHHAIQLVLSLDKPYDAVLDHQPIESVKGFLIDSDIPHACQSADSTVLVISVDASSSKGRLLKSHLLKRTFILIDELFSAEAIDEFLNFYWRCCDTSQHEFDPLYFLHKLSHEQRNITPFDARLLIAIDFINQDISQIIKVIDIARHISLSESRLRHLFTEQVGIPLTKYVLWVRMKVALREMLKPGVTLSDAAHQAGFTDHAHFTRTFRRMFGVSPSLLLKYGQFLQIFGL | not soluble
MGSDKIHHHHHHMRYDIVIIGGAIVGSSIAYYLREEGFSGSIALIERDPQFAHAATTLSMASIRQQFSIPENIRLSQFTLKLFRRLKETFGTDADIGFREGGYLILAGENGLPVLKANHDAQVAEGADIVLEDAEQLTRRFAWLSAEGISAGAYGRTGEGWFDAHAMLMLFRKALRDKKIDFIAASVTGIARDGDRVTGVSLDNGQTLEAGIVVNAAGPNAGKVAALAGLALPVEPRKRNVFVFEAREKYADMPLLVDPSGIYVRPEGSVYLTGGAEPEEGDGPADPSDFEVDWPLFEEVIWPVLATRIPAFEAIKATRAWAGHYDYNTLDQNAVIGPHPEVGNFIFANGFSGHGLQQAPAVGKALAEFLVHGGYRTIDCSAFGYGRVAEGRAFRELNVI | not soluble
MGSDKIHHHHHHMEEINKYIQNSSETGGEIYNLIEELFPICRSITGNGVRKTMDIIRKHIPLEIHEVKSGTKVFDWTVPKEWNIKDAYVRNSKGEKVIDFKENNLHVMSYSVPVHKTMTLDELKPYLHTIPGNKDRIPYLTSYYKENWGFSLTQNKFDELCDDDYEVVIDSSLEDGSLTYGEYYIRGELEEEILLTTYTCHPSMCNDNLSGVALITFIAKALSKLKTKYSYRFLFAPETIGSITWLSRNEDKLKNIKMGLVATCVGDAGIKNYKRTKFGDAEIDKIVEKVLMHCGSEYYVADFFPWGSDERQFSSPGINLSVGSLMRSCYGFDGYHTSADNLCYMNKDGLADSYKTYLEVIYTIENNRTYLNLNPKCEPQLGKRGIYRMIGGGSDYPFDEFAMFWVLNMSDGKNSLLDIAYKSGMEFRRIKYAADALYRVELLKLV | not soluble
MVMTVRVIAPDKTVWDAPAEEVILPSTTGQLGILSNHAPLLTALETGVMRVRQDREWVAIALMGGFAEVENNEVTILVNGAERGDTIDLEKAKAEFAAAQAALAQAEQGESKQAKIQATQAFRRARARLQAAGGVVEI | soluble
SVRDDLQVVLDTSPPDDTGFSTLERTMLRNILGLHDRRIADVMVHRADIVAIKQDIQLGELLSLFQDAAHSRLVVYNETLDDPVGIVHIRDLVAFMTAKAKVPPATVAKRKKALPAGLDLRAIDLKMPLTETGIIRKLLYVPPSMRAIDLLAQMQAARIHLALVVDEYGGTDGLVSIEDIVEQIVGEID | soluble
MKYNNHDKIRDFIIIEAYMFRFKKKVKPEVDMTIKEFILLTYLFHQQENTLPFKKIVSDLCYKQSDLVQHIKVLVKHSYISKVRSKIDERNTYISISEEQREKIAERVTLFDQIIKQFNLADQSESQMIPKDSKEFLNLMMYTMYFKNIIKKHLTLSFVEFTILAIITSQNKNIVLLKDLIETIHHKYPQTVRALNNLKKQGYLIKERSTEDERKILIHMDDAQQDHAEQLLAQVNQLLADKDHLHLVFE | soluble
MGSSHHHHHHSSGRENLYFQGVRPAVIAATGLYTPPDSVSNAELVEAFNTYVANFNAANKARIEAGEIEPLQPSSSEFIEKASGIKSRYVVAKPGIVDPDVMRPIIPERSNDELSILAEMAVTAAEQAIERWGKPRERIGAVLCACSNMQRAYPAMAIEVQNALGLGGFAFDMNVACSSATFGLKTAADFVGGGSVDAVLMVNPEICSGHLNFRDRDSHFIFGDVATAAIVERADDAQGGWSILGTKLKTQFSNNIRNNAGFLNRAWPEGRDKADKLFVQQGRKVFKEVVPLVSEMIIEHAREIGIDPHGLKRMWLHQANINMNEIIGRKVLGRDPTRDENVIILDDYANTSSAGSIIAFHKHQDDMAQGDLGLICSFGAGYSAGTVFVQKR | soluble
MARGREAVTLLLVGWGYAPGMQTLEALDAVRRADVVYVESYTMPGSSWLYKSVVEAAGEARVVEASRRDLEERSREIVSRALDAVVAVVTAGDPMVATTHSSLAAEALEAGVAVRYIPGVSGVQAARGATMLSFYRFGGTVTLPGPWRGVTPISVARRIYLNLCAGLHTTALLDVDERGVQLSPGQGVSLLLEADREYAREAGAPALLARLPSVLVEAGAGGGHRVLYWSSLERLSTADVEGGVYSIVIPARLSGVEEWLLAAASGQRRPLEYDRSVYETVEENCKKGVYMEPV | soluble
AHHHHHHGSEEYYVCPECGSEDVEVIKERGREVTLRCNECGYVWMITLPKLREIPVIVSKHERSFREKAVLPEDEVIKVGDVIEIENDQVKVLSIELPGGKRVRKAKVAEIQTIWGESLTYPKVFGVSIYLPGGITQSFKVVVDREEEFVVGEVIEVGGYTFKVEMIKTEKKLMRSGKAKAENIVRLMGHAIKGRARRKLKIYEGYDSISAENQ | not soluble
MGGVSDERLDLVNERDEVVGQILRTDPALRWERVRVVNAFLRNSQGQLWIPRRSPSKSLFPNALDVSVGGAVQSGETYEEAFRREAREELNVEIDALSWRPLASFSPFQTTLSSFMCVYELRSDATPIFNPNDISGGEWLTPEHLLARIAAGEAAKGDLAELVRRCYREEE | soluble
MAHHHHHHMINSVYHSKKACVEALRAVERLQPSWWTPPCSEFLHRVEQTPTVTAQPNQKTLIVLEGIDGVGKSLVAQSLIEKLGDSAVLIRTPHPDLSGIRETFRAQTEETARAFYSAANYLAAWDAFHATKERKFVVFDRWWCSTCAMALANSCRLAALPAAGDAVYQWPQDLPPFQLGALLYVEEHIRQARIRQRAPEDAEERRLRAQQEMREVAMEAYRRFGLLNEVHVATYGVAVNRILALMTEKGLPHSATPFSAEELAALRQI | soluble
MGSDKIHHHHHHLLYRTIMVGENLESMQCEKYFESLFDVDFDYLVGLGKEMPTILFIDASKYSKDVLNDWIFAFTNIILINNNPIRAFIIRGYSEELQEFKGYYRVVSSYKSPRQIVQEIISNVNDHLDKMIGNSSRVIQMKKMLVLSMFYDGSIMILGETGSGKNLLAEVIAKLSPRGSRPFYSINCAAIPENLLESEIFGYKKGAFTGATSEKVGLIEQANNGTLFLDEIGDMPLNLQAKILAITENREFFKIGATRPIKVDVRFITATNRYDDSAMRNDLRYRLSAVKIDLPPLRERKSDISLIFDEILEKKGYLVKFENIPQDLKERFLSYSYPGNVRELINMIEEYLAVNDVVQASVNSSMSKYVKVLAEEAIVARMVNGTSYKDFLQEVYKSVSQELLLQRSEVLKNDINEIAREFGLTTRRIRDLLAELNSSAKALTPNDDDE | not soluble
MVFKIKDEWGEFLVRLARRAIEEYLKTGKEIEPPKDTPPELWEKMGVFVTLNRYNVPPQTALRGCIGFPTPIYPLVEATIKAAIYSAVDDPRFPPVKLEEMDNLVVEVSVLTPPELIEGPPEERPRKIKVGRDGLIVEKGIYSGLLLPQVPVEWGWDEEEFLAETCWKAGLPPDCWLDEDTKVYKFTAEIFEEEYPRGPIKRKPLVLEHHHHHH | soluble
MGSDKIHHHHHHMDLVEEILRLKEERNAIILAHNYQLPEVQDIADFIGDSLELARRATRVDADVIVFAGVDFMAETAKILNPDKVVLIPSREATCAMANMLKVEHILEAKRKYPNAPVVLYVNSTAEAKAYADVTVTSANAVEVVKKLDSDVVIFGPDKNLAHYVAKMTGKKIIPVPSKGHCYVHQKFTLDDVERAKKLHPNAKLMIHPECIPEVQEKADIIASTGGMIKRACEWDEWVVFTEREMVYRLRKLYPQKKFYPAREDAFCIGMKAITLKNIYESLKDMKYKVEVPEEIARKARKAIERMLEMSK | not soluble

— the DeepSol protein solubility set
